Data: patent publication US20200407467

Legend:
[1] = test system: Fibrinogen (peptides of the human library)
[2] = test system: uncleavable negative control clone (randomly selected 90-aa human peptide from the proteome library)
[3] = test system: T7-SEPARATE PreScission-cleavable clone, multivalent display (mid-copy vector)
[4] = test system: T7-SEPARATE PreScission-cleavable clone, monovalent display (T7Select1-2b)

Substance	enrichment in SEPARATE (human library digest) [1]	phage particles recaptured, percent of immobilized phage particles [2]	phage particles recaptured, percent of pre-immobilized phage particles [3]	phage particles released, percent of pre-immobilized phage particles [3]	signal-to-noise ratio (highest PreScission concentration versus mock digest) [3]	phage particles recaptured, percent of pre-immobilized phage particles [4]	phage particles released, percent of pre-immobilized phage particles [4]	recapture of the cleavable peptide spiked 1 to 100 into the human library, fold increase versus mock digest [4]	signal-to-noise ratio (highest PreScission concentration versus mock digest) [4]
Thrombin	did not score in the assay, and this was true for other canonical enzyme-substrate pairs such as Thrombin/Fibrinogen								
PreScission enzyme (human rhinovirus 3C protease, GE Life Sciences)		~1% of the immobilized phage particles were similarly recaptured, whether the PreScission enzyme was included in the digest reaction or not	up to 24% and 22.5%, respectively	up to 24% and 22.5%, respectively	11.9	up to 53% and 43%, respectively	up to 53%	26-fold increase	23.4
